Results as given in patent US20060039904A1 (AstraZeneca / MedImmune, published 2006).
Each block holds one binder with its values, some of them ahead of it.

Columns and labels:
[1] = target: T1, FcγRIIIA (soluble receptor used as analyte in the BIAcore runs) (human, UniProt P08637 17-208); experiment: BIAcore run 1, ratio of isotherm KD values against wild type Vitaxin®
[2] = target: T1, FcγRIIIA (soluble receptor used as …); experiment: BIAcore run 2, ratio of isotherm KD values against wild type Vitaxin®
[3] = target: T1, FcγRIIIA (soluble receptor used as …); experiment: BIAcore run 2, IgG immobilized, soluble FcγRIIIA, Scatchard plot
[4] = target: T1, FcγRIIIA (soluble receptor used as …); experiment: BIAcore run 2, IgG immobilized, soluble FcγRIIIA, steady-state isotherm
[5] = target: T1, FcγRIIIA (soluble receptor used as …); experiment: BIAcore run 1, IgG immobilized, soluble FcγRIIIA, steady-state isotherm
[6] = target: T1, FcγRIIIA (soluble receptor used as …); experiment: BIAcore run 1, IgG immobilized, soluble FcγRIIIA, Scatchard plot

T1 sequence (P08637 17-208): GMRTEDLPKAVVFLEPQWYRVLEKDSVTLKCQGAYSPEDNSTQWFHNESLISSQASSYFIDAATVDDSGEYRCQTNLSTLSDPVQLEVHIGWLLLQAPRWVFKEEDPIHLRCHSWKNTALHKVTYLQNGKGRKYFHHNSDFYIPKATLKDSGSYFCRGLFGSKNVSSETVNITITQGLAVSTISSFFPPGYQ

Fold increase over WT [1]: 6.5 fold
Fold increase over WT [2]: 7 fold
Kd [3]: 1220 nM
Kd [4]: 1280 nM
Kd [5]: 458 nM
Kd [6]: 458 nM
B1: Vitaxin®-1M (Vitaxin® Fc variant I332E, IgG1) (antibody)
heavy: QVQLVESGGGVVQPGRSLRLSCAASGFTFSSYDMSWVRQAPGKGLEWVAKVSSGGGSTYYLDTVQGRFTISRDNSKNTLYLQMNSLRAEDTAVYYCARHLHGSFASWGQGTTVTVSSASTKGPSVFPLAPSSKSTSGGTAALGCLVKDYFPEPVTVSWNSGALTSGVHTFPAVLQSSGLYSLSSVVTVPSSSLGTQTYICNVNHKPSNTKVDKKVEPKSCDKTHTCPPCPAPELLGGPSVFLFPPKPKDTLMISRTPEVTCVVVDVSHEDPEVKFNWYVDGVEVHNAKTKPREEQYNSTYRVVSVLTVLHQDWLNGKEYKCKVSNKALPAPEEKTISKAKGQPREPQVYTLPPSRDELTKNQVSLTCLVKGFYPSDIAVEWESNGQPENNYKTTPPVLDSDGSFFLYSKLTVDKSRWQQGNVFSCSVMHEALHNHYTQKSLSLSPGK
VL: EIVLTQSPATLSLSPGERATLSCQASQSISNFLHWYQQRPGQAPRLLIRYRSQSISGIPARFSGSGSGTDFTLTISSLEPEDFAVYYCQQSGSWPLTFGGGTKVEIK
notes: Full length IgG1 with I332E in the Fc; expressed in 293H/HEK293 cells; also called I332E Fc variant; Vitaxin® Fc (I332E) variant

Kd [4]: 114 nM
B2: Vitaxin®-3M (Vitaxin® Fc variant S239D/A330L/I332E, IgG1) (antibody)
heavy: QVQLVESGGGVVQPGRSLRLSCAASGFTFSSYDMSWVRQAPGKGLEWVAKVSSGGGSTYYLDTVQGRFTISRDNSKNTLYLQMNSLRAEDTAVYYCARHLHGSFASWGQGTTVTVSSASTKGPSVFPLAPSSKSTSGGTAALGCLVKDYFPEPVTVSWNSGALTSGVHTFPAVLQSSGLYSLSSVVTVPSSSLGTQTYICNVNHKPSNTKVDKKVEPKSCDKTHTCPPCPAPELLGGPDVFLFPPKPKDTLMISRTPEVTCVVVDVSHEDPEVKFNWYVDGVEVHNAKTKPREEQYNSTYRVVSVLTVLHQDWLNGKEYKCKVSNKALPLPEEKTISKAKGQPREPQVYTLPPSRDELTKNQVSLTCLVKGFYPSDIAVEWESNGQPENNYKTTPPVLDSDGSFFLYSKLTVDKSRWQQGNVFSCSVMHEALHNHYTQKSLSLSPGK
VL: B1 VL
notes: I332E is used here; also called Vitaxin S239D/A330L/I332E
